Columns and labels:
[1] = biological target: von Willebrand factor (vWF) (human) (UniProt P04275); assay: FVIII-vWF binding ELISA, anti-A2 domain trap, vWF from FVIII-deficient plasma, anti-vWF-HRP detection, with ESH8
[2] = biological target: von Willebrand factor (vWF) (human) (UniProt P04275); assay: in vitro binding to vWF, method not named in the sentence (ELISA / affinity biosensor)
vWF (human) [3] = biological target: vWF (human) (UniProt P04275); assay: biosensor (SPR), IR8 captured on immobilized anti-fVIII antibody; with ESH8
vWF (human) [4] = biological target: vWF (human) (UniProt P04275); assay: biosensor (SPR), fVIII captured on immobilized anti-fVIII antibody
[5] = biological target: A1/A3-C1-C2 heterodimer of thrombin-cleaved FVIII (human) (UniProt P00451); assay: optical biosensor, purified protein after thrombin cleavage
[6] = biological target: IR8 (90/b/73 R336I/R562K/R740A; del795-1688/Arg336Iso/Arg562Lys/Arg740Ala) (human) (UniProt P00451); assay: optical biosensor; IR8 captured on immobilized Mab NMC-VIII/5, vWF added at 10 nM
[7] = biological target: IR8 (90/b/73 R336I/R562K/R740A; del795-1688/Arg336Iso/Arg562Lys/Arg740Ala) (human) (UniProt P00451); assay: optical biosensor; IR8 (30 nM) captured on immobilized Mab NMC-VIII/5, vWF added at 10 nM
[8] = biological target: von Willebrand factor (vWF) (human) (UniProt P04275); assay: ELISA and affinity biosensor analysis
[9] = biological target: von Willebrand factor (vWF) (human) (UniProt P04275); assay: FVIII-vWF binding ELISA, anti-A2 domain trap, vWF from FVIII-deficient plasma, anti-vWF-HRP detection, no ESH8
[10] = biological target: von Willebrand factor (vWF) (human) (UniProt P04275); assay: summary of ELISA and biosensor results
[11] = biological target: von Willebrand factor (vWF) (human) (UniProt P04275); assay: biosensor (SPR), IR8 captured on immobilized anti-fVIII antibody; without ESH8
[12] = biological target: wild-type factor VIII (FVIII WT) (human) (UniProt P00451); assay: cell-based or functional assay
[13] = biological target: IR8 (90/b/73 R336I/R562K/R740A; del795-1688/Arg336Iso/Arg562Lys/Arg740Ala) (human) (UniProt P00451); assay: cell-based or functional assay

IR8 (90/b/73 R336I/R562K/R740A; del795-1688/Arg336Iso/Arg562Lys/Arg740Ala) (human), sequence (P00451 other isoform, or with tags, fused parts or gaps R336I R562K R740A R562K R740A R336I R562K R740A R562K R740A, form in doubt): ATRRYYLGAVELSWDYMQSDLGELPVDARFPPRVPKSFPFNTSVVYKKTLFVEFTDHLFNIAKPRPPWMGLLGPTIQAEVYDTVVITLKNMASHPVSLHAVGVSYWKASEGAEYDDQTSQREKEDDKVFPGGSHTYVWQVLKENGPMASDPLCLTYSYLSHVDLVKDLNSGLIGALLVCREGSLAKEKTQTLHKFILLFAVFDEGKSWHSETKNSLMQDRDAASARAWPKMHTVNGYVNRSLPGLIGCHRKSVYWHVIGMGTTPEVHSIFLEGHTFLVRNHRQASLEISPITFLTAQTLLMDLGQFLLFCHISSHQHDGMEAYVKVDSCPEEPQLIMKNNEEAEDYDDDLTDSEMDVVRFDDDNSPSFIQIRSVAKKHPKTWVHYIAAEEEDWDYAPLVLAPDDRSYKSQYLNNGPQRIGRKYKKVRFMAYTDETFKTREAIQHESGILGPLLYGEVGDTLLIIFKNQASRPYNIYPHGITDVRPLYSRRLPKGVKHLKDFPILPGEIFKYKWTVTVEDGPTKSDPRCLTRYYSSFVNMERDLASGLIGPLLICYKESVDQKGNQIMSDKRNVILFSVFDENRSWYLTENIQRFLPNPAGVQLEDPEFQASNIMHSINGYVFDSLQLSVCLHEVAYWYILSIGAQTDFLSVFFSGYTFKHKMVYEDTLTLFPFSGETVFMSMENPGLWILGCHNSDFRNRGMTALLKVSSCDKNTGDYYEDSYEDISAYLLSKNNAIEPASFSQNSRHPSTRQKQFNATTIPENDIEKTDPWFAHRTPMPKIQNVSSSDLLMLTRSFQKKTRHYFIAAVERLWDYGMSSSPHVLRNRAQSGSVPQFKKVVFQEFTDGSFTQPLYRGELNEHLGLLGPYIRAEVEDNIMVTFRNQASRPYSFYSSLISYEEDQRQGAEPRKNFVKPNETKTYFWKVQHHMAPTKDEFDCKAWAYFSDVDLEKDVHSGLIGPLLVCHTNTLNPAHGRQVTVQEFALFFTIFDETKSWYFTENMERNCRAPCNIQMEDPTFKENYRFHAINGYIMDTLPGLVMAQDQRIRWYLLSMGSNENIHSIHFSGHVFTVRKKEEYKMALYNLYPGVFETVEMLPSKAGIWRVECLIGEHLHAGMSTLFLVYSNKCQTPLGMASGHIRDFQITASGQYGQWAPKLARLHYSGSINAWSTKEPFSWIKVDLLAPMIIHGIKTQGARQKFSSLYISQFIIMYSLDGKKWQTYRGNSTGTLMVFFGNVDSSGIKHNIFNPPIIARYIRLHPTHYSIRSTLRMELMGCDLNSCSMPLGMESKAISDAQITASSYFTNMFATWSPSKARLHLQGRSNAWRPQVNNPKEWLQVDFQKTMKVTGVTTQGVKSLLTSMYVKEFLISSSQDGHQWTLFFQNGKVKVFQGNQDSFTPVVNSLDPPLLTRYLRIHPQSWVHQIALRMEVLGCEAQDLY
A1/A3-C1-C2 heterodimer of thrombin-cleaved FVIII (human), sequence (P00451 20-391, chain 1 of 2): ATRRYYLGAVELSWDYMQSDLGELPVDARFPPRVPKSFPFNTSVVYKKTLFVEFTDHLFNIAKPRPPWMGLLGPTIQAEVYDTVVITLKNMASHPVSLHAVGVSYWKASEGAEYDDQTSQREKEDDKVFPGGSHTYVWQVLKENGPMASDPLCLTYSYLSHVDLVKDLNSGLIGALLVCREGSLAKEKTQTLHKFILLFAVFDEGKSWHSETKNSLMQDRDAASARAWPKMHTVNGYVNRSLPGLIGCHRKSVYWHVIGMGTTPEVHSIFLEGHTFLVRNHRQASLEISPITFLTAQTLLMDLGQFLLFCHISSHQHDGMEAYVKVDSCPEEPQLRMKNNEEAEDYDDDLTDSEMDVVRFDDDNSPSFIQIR
A1/A3-C1-C2 heterodimer of thrombin-cleaved FVIII (human), sequence (P00451 1709-2351, chain 2 of 2): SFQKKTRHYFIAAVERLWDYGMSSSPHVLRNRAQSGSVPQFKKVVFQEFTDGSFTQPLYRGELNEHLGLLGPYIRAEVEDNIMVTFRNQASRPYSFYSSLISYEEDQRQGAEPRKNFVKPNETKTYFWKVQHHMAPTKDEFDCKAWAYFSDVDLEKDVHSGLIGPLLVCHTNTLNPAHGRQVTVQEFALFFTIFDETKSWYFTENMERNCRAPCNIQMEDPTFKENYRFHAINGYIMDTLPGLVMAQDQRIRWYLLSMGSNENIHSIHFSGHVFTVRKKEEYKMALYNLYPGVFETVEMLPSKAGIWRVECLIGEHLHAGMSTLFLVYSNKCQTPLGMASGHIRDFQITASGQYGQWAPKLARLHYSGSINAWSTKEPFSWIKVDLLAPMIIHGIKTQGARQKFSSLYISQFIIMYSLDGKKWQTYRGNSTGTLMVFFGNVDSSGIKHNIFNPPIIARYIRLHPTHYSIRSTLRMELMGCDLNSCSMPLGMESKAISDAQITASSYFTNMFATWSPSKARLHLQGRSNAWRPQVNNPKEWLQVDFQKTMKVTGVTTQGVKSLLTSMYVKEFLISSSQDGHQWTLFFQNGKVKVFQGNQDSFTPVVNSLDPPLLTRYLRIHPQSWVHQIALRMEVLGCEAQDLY
wild-type factor VIII (FVIII WT) (human), sequence (P00451 20-2351 limits assumed): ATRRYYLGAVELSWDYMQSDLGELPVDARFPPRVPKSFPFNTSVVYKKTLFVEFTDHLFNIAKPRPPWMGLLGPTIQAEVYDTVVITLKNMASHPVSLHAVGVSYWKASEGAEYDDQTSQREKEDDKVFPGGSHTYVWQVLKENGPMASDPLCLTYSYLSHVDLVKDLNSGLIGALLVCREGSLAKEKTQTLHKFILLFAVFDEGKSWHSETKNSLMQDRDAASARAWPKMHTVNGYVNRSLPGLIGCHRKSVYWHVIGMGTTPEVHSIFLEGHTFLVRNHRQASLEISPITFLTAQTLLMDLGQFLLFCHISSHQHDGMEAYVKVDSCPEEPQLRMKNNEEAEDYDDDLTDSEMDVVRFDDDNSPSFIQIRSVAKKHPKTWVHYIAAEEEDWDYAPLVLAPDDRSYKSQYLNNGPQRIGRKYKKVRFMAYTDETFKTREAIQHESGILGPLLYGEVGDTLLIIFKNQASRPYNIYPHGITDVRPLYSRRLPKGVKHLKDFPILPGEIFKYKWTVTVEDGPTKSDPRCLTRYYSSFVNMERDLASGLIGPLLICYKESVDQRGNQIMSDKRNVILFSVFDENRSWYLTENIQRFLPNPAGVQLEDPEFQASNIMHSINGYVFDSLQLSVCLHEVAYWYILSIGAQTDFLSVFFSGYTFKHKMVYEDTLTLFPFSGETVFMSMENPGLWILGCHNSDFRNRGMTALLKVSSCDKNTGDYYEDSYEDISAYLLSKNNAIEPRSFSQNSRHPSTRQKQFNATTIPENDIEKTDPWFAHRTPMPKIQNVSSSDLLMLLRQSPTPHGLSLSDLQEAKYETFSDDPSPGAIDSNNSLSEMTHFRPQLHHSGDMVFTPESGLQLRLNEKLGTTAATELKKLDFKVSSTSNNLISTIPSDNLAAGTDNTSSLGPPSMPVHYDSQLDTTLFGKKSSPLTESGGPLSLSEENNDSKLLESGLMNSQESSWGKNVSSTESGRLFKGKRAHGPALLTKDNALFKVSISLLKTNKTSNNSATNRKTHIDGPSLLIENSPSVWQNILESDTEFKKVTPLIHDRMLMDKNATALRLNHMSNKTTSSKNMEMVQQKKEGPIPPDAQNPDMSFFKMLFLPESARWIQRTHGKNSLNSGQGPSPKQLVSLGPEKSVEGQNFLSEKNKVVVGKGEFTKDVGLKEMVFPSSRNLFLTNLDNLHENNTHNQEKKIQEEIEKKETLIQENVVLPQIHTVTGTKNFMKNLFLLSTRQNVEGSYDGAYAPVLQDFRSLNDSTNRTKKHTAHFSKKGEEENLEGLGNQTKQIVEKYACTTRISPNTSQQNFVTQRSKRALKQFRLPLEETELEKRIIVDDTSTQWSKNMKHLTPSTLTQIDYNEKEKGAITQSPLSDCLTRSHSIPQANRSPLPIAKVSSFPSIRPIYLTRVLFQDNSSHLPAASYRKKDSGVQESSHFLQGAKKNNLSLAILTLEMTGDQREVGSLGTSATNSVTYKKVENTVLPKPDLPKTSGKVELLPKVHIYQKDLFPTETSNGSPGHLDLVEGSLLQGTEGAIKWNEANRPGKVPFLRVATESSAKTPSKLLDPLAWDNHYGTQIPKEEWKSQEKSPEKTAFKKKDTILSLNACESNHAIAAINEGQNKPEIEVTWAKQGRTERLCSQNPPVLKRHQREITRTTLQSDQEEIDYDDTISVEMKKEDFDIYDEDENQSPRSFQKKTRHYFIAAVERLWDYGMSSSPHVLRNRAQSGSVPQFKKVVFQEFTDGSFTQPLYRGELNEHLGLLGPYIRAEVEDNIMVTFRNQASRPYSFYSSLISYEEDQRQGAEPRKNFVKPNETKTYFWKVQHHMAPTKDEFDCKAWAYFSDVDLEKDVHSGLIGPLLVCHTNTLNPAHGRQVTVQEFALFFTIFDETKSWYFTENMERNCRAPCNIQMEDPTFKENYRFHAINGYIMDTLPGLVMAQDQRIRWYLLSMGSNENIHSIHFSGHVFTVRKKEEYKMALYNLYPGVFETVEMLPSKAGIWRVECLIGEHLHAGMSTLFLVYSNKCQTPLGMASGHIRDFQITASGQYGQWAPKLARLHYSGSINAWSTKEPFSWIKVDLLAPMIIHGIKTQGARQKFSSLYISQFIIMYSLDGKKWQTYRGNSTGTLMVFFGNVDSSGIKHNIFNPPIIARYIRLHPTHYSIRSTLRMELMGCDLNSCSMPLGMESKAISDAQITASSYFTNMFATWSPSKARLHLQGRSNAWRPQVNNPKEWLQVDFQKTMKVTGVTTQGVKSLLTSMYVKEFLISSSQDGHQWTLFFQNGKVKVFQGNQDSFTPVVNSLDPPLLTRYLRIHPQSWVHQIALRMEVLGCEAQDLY

In the case of “IR8/ESH8 complex (from UniProt P00451 20-759; P00451 1708-2351)”, the fold lower binding affinity compared to wild-type FVIII [1] is reported as 2 fold and the Kd [2] is reported as 1.3 nM.
Work on “IR8/ESH8 (from UniProt P00451 20-759; P00451 1708-2351)” yielded a koff (vWF (human) [3]) of 0.0025 s⁻¹.
“wild-type factor VIII (FVIII WT) (from UniProt P00451 20-2351)” showed a Kd [2] of 0.3 nM.
In the case of pdfVIII, the Kd (vWF (human) [4]) is reported as 0.31 nM.
In the case of “A2 subunit of thrombin-cleaved R698W B-domainless FVIII (from UniProt P00451 392-759)”, the fold increased rate of A2 subunit dissociation compared to a B domainless FVIII control [5] is reported as 3 fold.
Work on “von Willebrand factor (vWF) (from UniProt P04275 764-2813)” yielded a Kd [6] of 29.6 nM, a koff [6] of 0.0042 s⁻¹ and a kon [7] of 140000 M⁻¹ s⁻¹.
“IR8 (90/b/73 R336I/R562K/R740A; del795-1688/Arg336Iso/Arg562Lys/Arg740Ala) (from UniProt P00451 20-759; P00451 1708-2351)” gave a fold reduced affinity compared to rFVIII [8] of 20 fold, a fold lower binding affinity compared to wild-type FVIII [9] of 10 fold and a fold lower affinity than FVIII WT [10] of 10 fold. The Kd [11] was 10.5 nM.
“ESH8, anti-light chain factor VIII mouse monoclonal antibody” gave a % Of Initial Activity (APTT, 4 hour incubation at 37 C with FVIII-deficient plasma), + ESH8 (% of initial activity) [12] of 29 and a % Of Initial Activity (APTT, 4 hour incubation at 37 C with FVIII-deficient plasma), + ESH8 (% of initial activity) [13] of 120.
“A2 subunit of thrombin-cleaved R698L B-domainless FVIII (from UniProt P00451 392-759)” was tested, and the fold increased rate of A2 subunit dissociation compared to a B domainless FVIII control [5] was 2 fold.
